Patent US20220257733A1, “ANTIGENIC POLYPEPTIDES AND METHODS OF USE THEREOF” (AGENUS INC., priority 2019, published 2022)
Blank lines part the entries; values can stand above or below the molecule they belong to. Non-standard residues stand in square brackets, D forms with d. No end group written: not given here. pT = C[C@@H](OP(=O)(O)O)[C@H](N)C(=O)O; pS = N[C@@H](COP(=O)(O)O)C(=O)O

How the values were obtained:
[1] = target: HLA A*02:01 (Homo sapiens, UniProt P04439, D140Y/D185E/D98H/E176V/E277Q/G131W/G231S/I119V/I121R/I166T/I218V/L300P/L318F/N151K/N90K/P208A/P217A/Q86G/Q94H/R138H/R169H/T345S); assay: AlphaScreen assay of peptide binding to HLA A*02:01; set-up: key to Kd in nM A*02:01: NT means that binding was not tested; NB means no binding was detected; LB stands for low binding and indicates that while some binding was observed, it was below the level that would allow accurate calculation of a Kd; settings: biotinylated HLA A*02:01 with excess β2m, Michaelis-Menten fit
Procedure: (§1) An AlphaScreen® assay was used to evaluate the binding of peptides to HLA molecules. Donor beads conjugated with streptavidin, and acceptor beads conjugated with the anti-human HLA class I antibody W6/32, were used to assess peptide binding. Biotinylated HLAs (A*02:01, B*07:02, C*07:01, or C*07:02) were mixed with a fixed excess of β2m and the mixtures added to each well of a 384-well microplate. Serial dilutions of the synthesized phosphopeptides were added to the wells, and the resultant HLA/β2/peptide mixtures were incubated overnight at 18° C. W6/32 conjugated acceptor beads were subsequently added to the wells, and the mixture was incubated for 1 hour at 21° C. Streptavidin conjugated donor beads were then added to the wells, and the mixture was incubated for a further 1 hour at 21° C.
(§2) The microplate was read using the PerkinElmer® plate reader, and data were plotted using the Michaelis-Menten equation to determine the Kd for each phosphopeptide.
Table 5 lists the Kd of each of the selected phosphopeptides to the indicated HLAs (A*02:01, B*07:02, C*07:01, or C*07:02). NT means that binding was not tested. NB means no binding was detected. […] In each case, the phosphopeptides bound as indicated below.

[2] = target: T1, Biotinylated HLA-A*02:01 with β2m (human, biotinylated (site not stated)); assay: AlphaScreen; biotinylated HLA + excess β2m + peptide dilutions, W6/32 acceptor beads, streptavidin donor beads; Michaelis-Menten fit
T1 construct: MHC class I heavy chain mixed with excess β2m
Procedure: as §1, §2

[3] = target: T1, Biotinylated HLA-A*02:01 with β2m; assay: AlphaScreen; biotinylated HLA + excess β2m + peptide dilutions, W6/32 acceptor beads, streptavidin donor beads
Procedure: as §1, §2

Kd in nM A*02:01 [1]: NB
Molecule: CC(C)[C@H](NC(=O)CNC(=O)[C@@H]1CCCN1C(=O)[C@@H]1CCCN1C(=O)[C@@H](NC(=O)[C@H](CCCNC(=N)N)NC(=O)[C@@H]1CCCN1C(=O)[C@H](C)N)[C@@H](C)OP(=O)(O)O)C(=O)N[C@H](C(=O)N[C@@H](Cc1ccccc1)C(=O)O)[C@@H](C)O [compound 120]

Kd [1]: 641 nM
Molecule: CC[C@H](C)[C@H](NC(=O)[C@H](CO)NC(=O)[C@H](CCCNC(=N)N)NC(=O)[C@H](COP(=O)(O)O)NC(=O)[C@H](CC(C)C)NC(=O)[C@@H](N)Cc1ccccc1)C(=O)N1CCC[C@H]1C(=O)N[C@@H](CO)C(=O)N[C@@H](CC(C)C)C(=O)O [compound 228]

Kd [1]: 203 nM
Molecule: CC(C)C[C@H](NC(=O)[C@H](CCC(=O)O)NC(=O)[C@H](CCC(=O)O)NC(=O)[C@H](CC(C)C)NC(=O)[C@H](COP(=O)(O)O)NC(=O)CNC(=O)[C@H](Cc1c[nH]cn1)NC(=O)[C@H](Cc1ccccc1)NC(=O)[C@H](CC(C)C)NC(=O)[C@@H](N)CCCCN)C(=O)O [compound 424]

Kd [1]: 188 nM
Molecule: CC[C@H](C)[C@H](NC(=O)[C@H](Cc1ccc(O)cc1)NC(=O)[C@H](COP(=O)(O)O)NC(=O)[C@H](CC(C)C)NC(=O)[C@H](CC(C)C)NC(=O)[C@@H](N)CCCCN)C(=O)N[C@@H](CCC(N)=O)C(=O)N[C@@H](CCCNC(=N)N)C(=O)N[C@@H](CC(C)C)C(=O)O [compound 433]

Kd [1]: 231 nM
Molecule: CSCC[C@H](NC(=O)[C@H](CC(C)C)NC(=O)[C@@H](N)CCC(N)=O)C(=O)N[C@H](C(=O)N[C@@H](CC(C)C)C(=O)N[C@@H](CCC(=O)O)C(=O)N[C@@H](CC(N)=O)C(=O)N[C@@H](CCCCN)C(=O)N[C@@H](CC(C)C)C(=O)O)[C@@H](C)OP(=O)(O)O [compound 654]

Kd in nM A*02:01 [1]: NB
Molecule: CC(C)C[C@H](NC(=O)[C@@H](NC(=O)[C@H](CC(C)C)NC(=O)[C@@H]1CCCN1C(=O)[C@H](COP(=O)(O)O)NC(=O)[C@@H]1CCCN1C(=O)[C@@H](NC(=O)[C@H](CCCNC(=N)N)NC(=O)[C@@H]1CCCN1C(=O)[C@@H](N)CCC(N)=O)[C@@H](C)O)C(C)C)C(=O)O [compound 657]

Kd in nM A*02:01 [1]: NB
Molecule: CC(C)C[C@H](NC(=O)[C@H](COP(=O)(O)O)NC(=O)[C@H](CCCNC(=N)N)NC(=O)[C@H](CCCCN)NC(=O)[C@H](CO)NC(=O)[C@H](CC(C)C)NC(=O)[C@H](Cc1ccccc1)NC(=O)[C@@H]1CCCN1C(=O)[C@@H](N)CO)C(=O)O [compound 1157]

Kd in nM A*02:01 [1]: NB
Molecule: CC[C@H](C)[C@H](NC(=O)[C@@H]1CCCN1C(=O)[C@H](COP(=O)(O)O)NC(=O)[C@H](CCCNC(=N)N)NC(=O)[C@@H]1CCCN1C(=O)[C@@H](N)CO)C(=O)N[C@@H](CO)C(=O)N1CCC[C@H]1C(=O)N[C@@H](CCC(=O)O)C(=O)N[C@@H](CC(C)C)C(=O)O [compound 1179]

Kd [2]: 0.188 µM
B1: KLLsYIQRL (peptide)
peptide: KLL[pS]YIQRL
notes: predicted HLA-A*02:01

Kd [2]: 0.203 µM
B2: KLFHGsLEEL (peptide)
peptide: KLFHG[pS]LEEL
notes: predicted HLA-A*02:01

binding result [3]: no binding
B3: HRVsVILKL (peptide)
peptide: HRV[pS]VILKL
notes: predicted HLA-B*14:01 (not among the HLAs tested)

Kd [2]: 0.231 µM
B4: QLMtLENKL (peptide)
peptide: QLM[pT]LENKL
notes: predicted HLA-A*02:01

binding result [3]: no binding
B5: SPRsPISPEL (peptide)
peptide: SPR[pS]PISPEL
notes: predicted HLA-B*07:02

binding result [3]: no binding
B6: APRtPPGVTF (peptide)
peptide: APR[pT]PPGVTF
notes: predicted HLA-B*07:02

Kd [2]: 0.641 µM
B7: FLsRSIPSL (peptide)
peptide: FL[pS]RSIPSL
notes: predicted HLA-A*02:01

binding result [3]: no binding
B8: SPFLSKRsL (peptide)
peptide: SPFLSKR[pS]L
notes: predicted HLA-B*07:02

binding result [3]: no binding
B9: YRLsPEPTPL (peptide)
peptide: YRL[pS]PEPTPL
notes: predicted HLA-C*07:02 (not tested on it)

binding result [3]: no binding
B10: SRKsFVFEL (peptide)
peptide: SRK[pS]FVFEL
notes: predicted HLA-B*08:01 (not among the HLAs tested)
